# Source: PMC2741639 (Microbiological research, 2008)
# B1: His-tagged Sbm (enzyme, E. coli, UniProt P27253 1-714, looked up)
# chain: MSNVQEWQQLANKELSRREKTVDSLVHQTAEGIAIKPLYTEADLDNLEVTGTLPGLPPYVRGPRATMYTAQPWTIRQYAGFSTAKESNAFYRRNLAAGQKGLSVAFDLATHRGYDSDNPRVAGDVGKAGVAIDTVEDMKVLFDQIPLDKMSVSMTMNGAVLPVLAFYIVAAEEQGVTPDKLTGTIQNDILKEYLCRNTYIYPPKPSMRIIADIIAWCSGNMPRFNTISISGYHMGEAGANCVQQVAFTLADGIEYIKAAISAGLKIDDFAPRLSFFFGIGMDLFMNVAMLRAARYLWSEAVSGFGAQDPKSLALRTHCQTSGWSLTEQDPYNNVIRTTIEALAATLGGTQSLHTNAFDEALGLPTDFSARIARNTQIIIQEESELCRTVDPLAGSYYIESLTDQIVKQARAIIQQIDEAGGMAKAIEAGLPKRMIEEASAREQSLIDQGKRVIVGVNKYKLDHEDETDVLEIDNVMVRNEQIASLERIRATRDDAAVTAALNALTHAAQHNENLLAAAVNAARVRATLGEISDALEVAFDRYLVPSQCVTGVIAQSYHQSEKSASEFDAIVAQTEQFLADNGRRPRILIAKMGQDGHDRGAKVIASAYSDLGFDVDLSPMFSTPEEIARLAVENDVHVVGASSLAAGHKTLIPELVEALKKWGREDICVVAGGVIPPQDYAFLQERGVAAIYGPGTPMLDSVRDVLNLISQHHD
# Target: the molecule itself
# Test: native gel or EMSA
protein,measurement,value
B1,stoichiometry N,2
